Measurements reported in publication doi:10.1101/2024.07.11.602925.

Biological target: His-tagged PTB domain of RABGAP1
Assay: ITC

- Kd: 61 µM
- stoichiometry N: 1
Substance: WT APP tail peptide, starting from the MQQ sequence at position 677 (from UniProt P05067-4 677-695)
